{
  "source": "patent US20260063625A1",
  "about": "“COMPOSITIONS FOR AND METHODS OF DETECTING FOOD TOXINS” (priority 2022, published 2026)",
  "molecules": {"B1": {"name": "RcSxph: Saxiphilin of Rana (Lithobates) catesbeianus, American bullfrog, SEQ ID NO:1 (protein)", "chain": "MAPTFQTALFFTIISLSFAAPNAKQVRWCAISDLEQKKCNDLVGSCNVPDITLVCVLRSSTEDCMTAIKDGQADAMFLDSGEVYEASKDPYNLKPIIAEPYSSNRDLQKCLKERQQALAKKMIGHYIPQCDEKGNYQPQQCHGSTGHCWCVNAMGEKISGTNTPPGQTRATCERHELPKCLKERQVALGGDEKVLGRFVPQCDEKGNYEPQQFHGSTGYSWCVNAIGEEIAGTKTPPGKIPATCQKHDLVTTCHYAVAMVKKSSAFQFNQLKGKRSCHSGVSKTDGWKALVTVLVEKKLLSWDGPAKESIQRAMSKFFSVSCIPGATQTNLCKQCKGEEGKNCKNSHDEPYYGNYGAFRCLKEDMGDVAFLRSTALSDEHSEVYELLCPDNTRKPLNKYKECNLGTVPAGTVVTRKISDKTEDINNFLMEAQKRQCKLFSSAHGKDLMFDDSTLQLALLSSEVDAFLYLGVKLFHAMKALTGDAHLPSKNKVRWCTINKLEKMKCDDWSAVSGGAIACTEASCPKGCVKQILKGEADAVKLEVQYMYEALMCGLLPAVEEYHNKDDFGPCKTPGSPYTDFGTLRAVALVKKSNKDINWNNIKGKKSCHTGVGDIAGWVIPVSLIRRQNDNSDIDSFFGESCAPGSDTKSNLCKLCIGDPKNSAANTKCSLSDKEAYYGNQGAFRCLVEKGDVAFVPHTVVFENTDGKNPAVWAKNLKSEDFELLCLDGSRAPVSNYKSCKLSGIPPPAIVTREESISDVVRIVANQQSLYGRKGFEKDMFQLFSSNKGNNLLFNDNTQCLITFDRQPKDIMEDYFGKPYYTTVYGASRSAMSSELISACTIKHC"}, "B2": {"name": "Y558I: RcSxph mutant, isoleucine for tyrosine at position 558 (protein)", "chain": "B1 chain with Y577I"}, "B3": {"name": "P727A: RcSxph mutant P727A (protein)", "chain": "B1 chain with P746A"}, "B4": {"name": "NpSxph: Saxiphilin of Nanorana parkeri, High Himalaya frog, SEQ ID NO:2 (protein, listed as Nanorana parkeri)", "chain": "MALTFHTALYFTIVGLSFAASDARHVQWCTISHLEQKKCNDLVGSCNVPDITLACVYRSSTENCMAAIKDGQADAMFLDSGDVYKASLDHYNLKPIIAEPYSLHRELTKCLKHRQESLGGDKMVKGRYIPQCDEKGNYHPVQCHASTGYCWCVNANGEKIEGTNTTPVQTPPTCPSQVLTKCLKERQEALGGKRIAIGRYIPQCDEQGNYRPMQCHGSTGYCWCVNAIGEKIEGTNTPPGNTQPTCQSHDWDTCHYAVAVVKNSSTFQFGQLKGKRSCHSGLSKTDGWNAPVNVFVEKKLLPWDGLAKGSIERAVSKFFSASCIPGATETNLCKQCIGEEEKKCKSSHDEPYYGDHGAFRCLQEDKGDVAFLKNTALPDEHSGVYELLCPDNTRKPLNKYKECNLGKVPADAVVTRKAGDKTKDINDFLLEAQKKKCKLFGSPHGKDLMFDDSTTHLAPLPSEIDAFFFLGVKWYNAMKALTEDVKLPSKNKVRWCTINKPEMMKCKDWAAVSGGAIACTEASCPEHCVKQILKGEADAVTLDVQYMYMALMCGLLPAVEEYPNKDDFHPCQIPGSTIKDFGTKRAVALVKKSNKDIKWNNLKGKKSCHTHVGDIPGWVIPAGLISNQNDNIDIESFFGESCAPGSDTNSKLCKLCIGDPENPKASTRCSLSDKEAYYGNEGAFRCLVEKGDVAFVPHTVVFANTDGKNPAEWAKDLKSEDFEILCLDGSRAPVTNYRGCNLSGLPPRAIVTREESVSDVVRILINQQSLYGRNGFEKDMFQMFSSAKGQNLLFNDETQCLIEFDRQPKDIMEDYFGVRYYTAVYSASRSAVPSELIPACTFKHC"}, "B5": {"name": "I782A: RcSxph mutant, alanine for isoleucine at position 782 (protein)", "chain": "B1 chain with I801A"}, "B6": {"name": "E540A: RcSxph mutant E540A (protein)", "chain": "B1 chain with E559A"}, "B7": {"name": "D794A: RcSxph mutant D794A (protein)", "chain": "B1 chain with D813A"}},
  "note": "Positions count from the first letter of the chain named. In names and notes the source's numbering stands.",
  "data": [
    {"tested_on": "not listed separately", "assay": "Isothermal titration calorimetry (ITC) of STX into Sxph", "type": "binding", "settings": "25° C.", "experimental": "(§1) ITC measurements were performed at 25° C. using a MicroCal PEAQ-ITC calorimeter (Malvern Panalytical). […]. This STX stock was diluted with the SEC buffer to prepare 100 μM or 300 μM STX solutions having a final buffer composition of 135 mM NaCl, 9 mM HEPES, pH 7.4. […]. The calorimetric experiment settings were: reference power, 5 μcal/s; spacing between injections, 150 s; stir speed 750 rpm; and feedback mode, high. Data were analyzed using MicroCal PEAQ-ITC Analysis Software (Malvern Panalytical) using a single binding site model. The heat of dilution from titrations of 100 μM STX in 135 mM NaCl, 9 mM HEPES, pH 7.4 into 135 mM NaCl, 9 mM HEPES, pH 7.4 was subtracted from each experiment to correct the baseline.", "units": {"[…]G": "kcal/mol", "[…]H (kcal mol^−1), binding enthalpy": "kcal/mol", "[…]S (cal mol^−1 K^−1)": "cal mol^−1 K^−1"}, "values": [
      {"molecule": "B1", "[…]G": "-12.3 ± 0.5", "[…]H (kcal mol^−1), binding enthalpy": "-16.1 ± 0.2", "[…]S (cal mol^−1 K^−1)": "−12.7 ± 0.9"},
      {"molecule": "B2", "[…]G": "-12.2 ± 0.3", "[…]H (kcal mol^−1), binding enthalpy": "-15.5 ± 0.3", "[…]S (cal mol^−1 K^−1)": "−10.5 ± 0.6"},
      {"molecule": "B3", "[…]G": "-10.3 ± 0.2", "[…]H (kcal mol^−1), binding enthalpy": "-11.5 ± 0.0", "[…]S (cal mol^−1 K^−1)": "−4.2 ± 0.9"},
      {"molecule": "B4", "[…]G": "-11.8 ± 0.1", "[…]H (kcal mol^−1), binding enthalpy": "-18.7 ± 0.2", "[…]S (cal mol^−1 K^−1)": "−23.2 ± 0.8"}
    ]},
    {"tested_on": "not listed separately", "assay": "Isothermal titration calorimetry (ITC) of STX into Sxph", "type": "binding", "settings": "25° C., listed as NpSxph WT", "experimental": "as §1", "units": {"[…]H (kcal mol^−1), binding enthalpy": "kcal/mol"}, "values": [
      {"molecule": "B4", "[…]H (kcal mol^−1), binding enthalpy": "-18.7 ± 0.2"}
    ]},
    {"tested_on": "not listed separately", "assay": "Isothermal titration calorimetry (ITC) of STX into Sxph", "type": "binding", "settings": "25° C., listed as RcSxph WT", "experimental": "as §1", "units": {"[…]H (kcal mol^−1), binding enthalpy": "kcal/mol"}, "values": [
      {"molecule": "B1", "[…]H (kcal mol^−1), binding enthalpy": "-16.1 ± 0.2"}
    ]},
    {"tested_on": "PtNaV1.4", "assay": "Two-electrode voltage clamp: Sxph rescue of PtNaV1.4 from STX block in Xenopus oocytes", "type": "cell-based, Phyllobates terribilis", "settings": "[Sxph]:[STX] ratio, 100 nM STX", "values": [
      {"molecule": "B1", "Effective Rescue Ratio50 (ERR50)": "1.07±0.02"},
      {"molecule": "B2", "Effective Rescue Ratio50 (ERR50)": "0.81±0.01"},
      {"molecule": "B5", "Effective Rescue Ratio50 (ERR50)": "0.87±0.02"},
      {"molecule": "B6", "Effective Rescue Ratio50 (ERR50)": "eliminated"},
      {"molecule": "B3", "Effective Rescue Ratio50 (ERR50)": "> 4"}
    ]},
    {"tested_on": "not given", "assay": "not given", "type": "binding", "settings": "1.1 μM Sxph, 0-20 μM STX", "values": [
      {"molecule": "B1", "DTm ([…]Tm=TmSxph+20 μM toxin−TmSxph), STX": "3.6 °C"},
      {"molecule": "B5", "DTm ([…]Tm=TmSxph+20 μM toxin−TmSxph), STX": "DTm increases relative to wild-type"},
      {"molecule": "B6", "DTm ([…]Tm=TmSxph+20 μM toxin−TmSxph), STX": "complete loss of the thermal shift"},
      {"molecule": "B7", "DTm ([…]Tm=TmSxph+20 μM toxin−TmSxph), STX": "complete loss of the thermal shift"},
      {"molecule": "B4", "DTm ([…]Tm=TmSxph+20 μM toxin−TmSxph), STX": "3.6 °C"}
    ]},
    {"tested_on": "not listed separately", "assay": "Fluorescence polarization (FP) binding to fluorescein labeled STX", "settings": "[…]G = RT ln (Kd(XSxph)/Kd(RcSxph)); T = 298K", "units": {"[…]G (kcal mol^−1) relative to RcSxph": "kcal/mol"}, "values": [
      {"molecule": "B1", "[…]G (kcal mol^−1) relative to RcSxph": 0},
      {"molecule": "B4", "[…]G (kcal mol^−1) relative to RcSxph": -1.60}
    ]},
    {"tested_on": "not listed separately", "assay": "Fluorescence polarization (FP) binding to fluorescein labeled STX", "settings": "[…]G = RT ln (KdSxph mutant/KdSxph); T = 298K", "units": {"[…]G (kcal mol^−1) relative to wild-type RcSxph": "kcal/mol"}, "values": [
      {"molecule": "B1", "[…]G (kcal mol^−1) relative to wild-type RcSxph": 0},
      {"molecule": "B2", "[…]G (kcal mol^−1) relative to wild-type RcSxph": -1.07},
      {"molecule": "B5", "[…]G (kcal mol^−1) relative to wild-type RcSxph": -0.53},
      {"molecule": "B6", "[…]G (kcal mol^−1) relative to wild-type RcSxph": 4.52},
      {"molecule": "B3", "[…]G (kcal mol^−1) relative to wild-type RcSxph": 1.21},
      {"molecule": "B7", "[…]G (kcal mol^−1) relative to wild-type RcSxph": 4.43}
    ]}
  ]
}
